Data on five molecules can be found in patent publication US20180164286A1 (MEDICAL DIAGNOSTIC LABORATORIES, published 2018).

For test [1], the target named is Small BiT (SB)-eIF4E, full-length. Description: cell-based or functional assay.
In test [2] the target is T1, Small BiT (SB)-eIF4E, full-length.
T1 construct: N-terminal Small BiT fusion of full-length eIF4E (cDNA Origene RC207333), expressed intracellularly in HEK293, MCF-7 or HEK293-derived clones; also called Full-length SB-eIF4E; SB-linked eIF4E
The experiment in a line: split-luciferase luminescence in 3A1 cell line stably expressing SB-eIF4E.

Test [3] shares this target. Description: split-luciferase (NanoBiT) luminescence in HEK293 cells.

Where a chain is given by its changes, count along the chain named. Numbers in names are those of the source.

B1: Large BiT (LB)-4E-BP2, full-length (other)
chain: MVFTLEDFVGDWEQTAAYNLDQVLEQGGVSSLLQNLAVSVTPIQRIVRSGENALKIDIHVIIPYEGLSADQMAQIEEVFKVVYPVDDHHFKVILPYGTLVIDGVTPNMLNYFGRPYEGIAVFDGKKITVTGTLWNGNKIIDERLITPDGSMLFRVTINSGSSGGGGSGGGGSSGMSSSAGSGHQPSQSRAIPTRTVAISDAAQLPHDYCTTPGGTLFSTTPGGTRIIYDRKFLLDRRNSPMAQTPPCHLPNIPGVTSPGTLIEDSKVEVNNLNNLNNHDRKHAVGDDAQFEMDI
In the case of B1, the “fold-change of split-luciferase luminescence, rapamycin (50 nM, 1 h) over vehicle; HEK293 cells” value in test [1] came to 1.84 fold.

B2: D55Y LB-4E-BP2 (other)
chain: B1 chain with D229Y
notes: Patient (COSMIC) mutation made in LB-4E-BP2 as a linear expression cassette; The residue number counts on 4E-BP2 itself; also called 4EBP2-D55Y
Take B2: in test [2], the binding result was “no binding”.

B3: R62P LB-4E-BP2 (other)
chain: B1 chain with R236P
notes: Patient (COSMIC) mutation made in LB-4E-BP2 as a linear expression cassette; The residue number counts on 4E-BP2 itself; also called 4EBP2-R62P
Consider B3, for which, in test [2], the binding result is on record as “no binding”.

B4: 4E-BP1 with C-terminal LB at residue 75 (other, UniProt Q13541 1-75, looked up, not shown: large carriers)
chain: MSGGSSCSQTPSRAIPATRRVVLGDGVQLPPGDYSTTPGGTLFSTTPGGTRIIYDRKFLMECRNSPVTKTPPRDL
Take B4: in test [1], the “fold-change of split-luciferase luminescence, rapamycin (50 nM, 1 h) over vehicle; HEK293 cells” value came out at 0.83 fold.

B5: LB-4E-BP1 with T37E, T46E, S65E, and T70E (other)
chain: MVFTLEDFVGDWEQTAAYNLDQVLEQGGVSSLLQNLAVSVTPIQRIVRSGENALKIDIHVIIPYEGLSADQMAQIEEVFKVVYPVDDHHFKVILPYGTLVIDGVTPNMLNYFGRPYEGIAVFDGKKITVTGTLWNGNKIIDERLITPDGSMLFRVTINSGSSGGGGSGGGGSSGMSGGSSCSQTPSRAIPATRRVVLGDGVQLPPGDYSTEPGGTLFSTEPGGTRIIYDRKFLMECRNEPVTKEPPRDLPTIPGVTSPSSDEPPMEASQSHLRNSPEDKRAGGEESQFEMDI
notes: All four mTOR phosphorylation sites changed to glutamate on the LB-4E-BP1 plasmid; The residue numbers count on 4E-BP1 itself; also called T37/46/70E/S65E (all 4 sites mutated); all E
Take B5: the binding result in test [3] is recorded as “no binding”.
